Measurements published in paper doi:10.1101/2022.02.14.480394 (bioRxiv, 2022).

Molecular target: Receptor Binding-Domain (RBD) of SARS-CoV-2 Spike (S) protein, Wuhan-Hu-1 (SARS-CoV-2, UniProt P0DTC2)
Experiment: BLI

Binder	binding result
C118 (antibody, V domains shown) VH: QVQLVESGGGVVQPGRSLRLSCAASGFTFSNYAMHWVRQAPGKGLEWVAVISYDGSNKYYADSVKGRFTISRDNSKNTLYLQMNSLRAEDTAIYYCASGYTGYDYFVRGDYYGLDVWGQGTTVTVSS VL: QPVLTQSPSASASLGASVKLTCTLSSGHSSYAIAWHQQQPEKGPRYLMKLNTDGSHSKGDGIPDRFSGSSSGAERYLTISSLQSEDEADYYCQTWGTGILVFGGGTKLTVL	binds
C105 (antibody, V domains shown) VH: QVQLVESGGGLIQPGGSLRLSCAASGFTVSSNYMSWVRQAPGKGLEWVSVIYSGGSTYYADSVKGRFTISRDNSKNTLYLQMNSLRAEDTAVYYCARGEGWELPYDYWGQGTLVTVSS VL: QSALTQPPSASGSPGQSVTISCTGTSSDVGGYKYVSWYQQHPGKAPKLMIYEVSKRPSGVPDRFSGSKSGNTASLTVSGLQAEDEADYYCSSYEGSNNFVVFGGGTKLTVL	binds
